Measurements: patent US7897569B2, “Use of HMGB fragments as anti-inflammatory agents” (The Feinstein Institute for Medical Research, priority 2001, dated 2011)

B1: A box: Human HMGB1 mutant containing only the A box, SEQ ID NO:21 (A box SEQ ID NO:22) (protein)
chain: MGKGDPKKPTGKMSSYAFFVQTCREEHKKKHPDASVNFSEFSKKCSERWKTMSAKEKGKFEDMAKADKARYEREMKTYIPPKGET
B2: B box: Human HMGB1 mutant containing only the B box, SEQ ID NO:20 (protein)
chain: FKDPNAPKRLPSAFFLFCSEYRPKIKGEHPGLSIGDVAKKLGEMWNNTAADDKQPYEKKAAKLKEKYEKDIAAY

Tests used:
[1] = system: Balb/c mice subjected to CLP; experiment: Cecal ligation and puncture (CLP) sepsis survival; assay type: in vivo
Method: Cecal ligation and puncture (CLP) was performed as described previously (Fink and Heard, J. Surg. Res. 49:186-196, 1990; Wichmann et al., Crit. Care Med. 26:2078-2086, 1998; and Remick et al., Shock 4:89-95, 1995). Briefly, Balb/c mice were anesthetized with 75 mg/kg ketamine (Fort Dodge, Fort Dodge, Iowa) and 20 mg/kg of xylazine (Bohringer Ingelheim, St. Joseph, Mo.) intramuscularly. A midline incision was performed, and the cecum was isolated. A 6-0 prolene suture ligature was placed at a level 5.0 mm from the cecal tip away from the ileocecal valve.
The ligated cecal stump was then punctured once with a 22-gauge needle, without direct extrusion of stool. The cecum was then placed back into its normal intra-abdominal position. The abdomen was then closed with a running suture of 6-0 prolene in two layers, peritoneum and fascia separately to prevent leakage of fluid. All animals were resuscitated with a normal saline solution administered sub-cutaneously at 20 ml/kg of body weight. Each mouse received a subcutaneous injection of imipenem (0.5 mg/mouse) (Primaxin, Merck & Co., Inc., West Point, Pa.) 30 minutes after the surgery. Animals were then allowed to recuperate. Mortality was recorded for up to 1 week after the procedure; survivors were followed for 2 weeks to ensure no late mortalities had occurred.
To determine whether the HMGB1 A box can inhibit the lethality of HMGB1 during sepsis, mice were subjected to cecal perforation and treated by administration of A box beginning 24 hours after the onset of sepsis. CLP was performed on male Balb/c mice as described herein. Animals were randomly grouped, with 15-25 mice per group. The HMGB1 A box (60 or 600 μg/mouse each time) or vector (GST tag, 600 μg/mouse) alone was administered intraperitoneally twice daily for 3 days beginning 24 hours after CLP. Survival was monitored twice daily for up to 2 weeks to ensure no late death occurred. […]
Passive immunization of critically ill septic mice with anti-HMGB1 antibodies was also assessed. […] Survival was monitored for 2 weeks. […]

HMGB1 = experiment: A box antagonism of full length HMGB1 TNF release in RAW 264.7 macrophage cultures (ELISA); assay type: cell-based; conditions: co-addition with HMGB1, 16 hours, polymyxin B
Method: Antagonism of full length HMGB1 activity by HMGB1 A box or GST tag (vector control) was also determined by measuring TNF release from RAW 264.7 macrophage cultures stimulated by co-addition of A box with full length HMGB1. RAW 264.7 macrophage cells (ATCC) were seeded into 24-well tissue culture plates and used at 90% confluence. The cells were treated with HMGB1, and/or A boxes as indicated for 16 hours in Optimum I medium (Life Technologies, Grand Island, N.Y.) in the presence of polymyxin B (100 units/ml, Sigma, St. Louis, Mo.) and supernatants were collected for TNF measurement (mouse ELISA kit from R&D System Inc, Minneapolis, Minn.). TNF-inducing activity was expressed as a percentage of the activity achieved with HMG-1 alone. FIG. 4B is a histogram of the effect of HMGB1, alone, A box alone, Vector (control) alone, HMGB1 in combination with A box, and HMGB1 in combination with vector.

RAW 264.7 cells = experiment: IL-1β release from RAW 264.7 cells (ELISA); assay type: cell-based, murine; conditions: B box 1 μg/ml or 10 μg/ml, 8 hours
Method: To further examine the effect of HMGB1 B box on cytokine production, varying amounts of HMGB1 B box were evaluated for the effects on TNF, IL-1 B, and IL-6 production in murine macrophage-like RAW 264.7 cells. Conditioned media were harvested and measured for TNF, IL-1β and IL-6 levels. TNF levels were measured as described herein, and IL-1β and IL-6 levels were measured using the mouse IL-1β and IL-6 enzyme-linked immunosorbent assay (ELISA) kits (R&D System Inc., Minneapolis, Minn.) and N>5 for all experiments.

[2] = system: D-galactosamine-sensitized Balb/c mice; experiment: Histology and serum cytokines in D-galactosamine-sensitized Balb/c mice; assay type: in vivo
Method: To further assess the lethality of the HMGB1 B box protein in vivo the HMGB1 B box was again administered to D-galactosamine-sensitized Balb/c mice. Mice (3 per group) received D-gal (20 mg/mouse) plus B box or vector (1 mg/mouse) intraperitoneally for 7 hours and were then sacrificed by decapitation. Blood was collected, and organs (liver, heart, kidney and lung) were harvested and fixed in 10% formaldehyde. Tissue sections were prepared with hematoxylin and eosin staining for histological evaluation (Criterion Inc., Vancouver, Canada). The results of these studies are shown in FIGS. 7A-7J, which are scanned images of hematoxylin and eosin stained kidney sections (FIG. 7A), myocardium sections (FIG. 7C), lung sections (FIG. 7E), and liver sections (FIGS. 7G and 7I) obtained from an untreated mouse and kidney sections (FIG. 7B), myocardium sections (FIG. 7D), lung sections (FIG. 7F), and liver sections (FIGS. 7H and 7J) obtained from mice treated with the HMGB1 B box. […] In FIG. 7J, hepatocyte dropouts are seen surrounded by accumulated polymorphonuclear leukocytes. The arrows in FIG. 7J point to the sites of polymorphonuclear accumulation (dotted) or apoptotic hepatocytes (solid).

[3] = 1 mg/mouse ip plus D-gal, 7 hours

Molecule	clinical condition and outcome ([1]; 60 μg A box, CLP)	clinical condition ([1]; 600 μg/mouse A box, CLP)	survival ([1]; ip twice daily for 3 days beginning 24 hours after CLP) [%]	effect on TNF stimulating activity of full length HMGB1 (HMGB1)	IL-1β release (RAW 264.7 cells)	histology of heart [2, 3]	histology of kidneys and lungs [2, 3]	histology of liver [2, 3]	serum levels of IL-1β ([2]; B box in vivo, Balb/c mice)	serum levels of IL-6 ([2]; B box in vivo, Balb/c mice)
B1	most died	significantly more alert, active, and to resume feeding behavior	68	significantly attenuated						
B2					increased release of IL-1β	some ischemic changes and loss of cross striation in myocardial fibers	no abnormality	active hepatitis	15+3 pg/ml	315+93 pg/ml
